Common to all, as to test: ELISA
One experiment has as its target EBOV GP[change] (Ebola virus (EBOV), UniProt Q05320).
For the next experiment, the target named is T1, EBOV GPcl (Ebola virus (EBOV), UniProt Q05320 33-200; Q05320 502-632).
T1 chain 1: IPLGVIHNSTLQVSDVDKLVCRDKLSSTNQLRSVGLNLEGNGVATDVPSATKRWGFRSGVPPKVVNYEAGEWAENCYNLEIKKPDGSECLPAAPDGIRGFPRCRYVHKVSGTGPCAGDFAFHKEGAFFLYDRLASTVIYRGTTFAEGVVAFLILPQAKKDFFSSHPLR
T1 chain 2: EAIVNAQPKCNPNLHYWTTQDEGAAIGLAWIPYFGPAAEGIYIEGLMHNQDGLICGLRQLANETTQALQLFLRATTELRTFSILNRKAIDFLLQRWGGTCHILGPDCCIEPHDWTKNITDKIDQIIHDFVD

Another experiment concerns the target T2, EBOV soluble GP (sGP) (Ebola virus (EBOV), UniProt P60170 33-324).
T2 chain: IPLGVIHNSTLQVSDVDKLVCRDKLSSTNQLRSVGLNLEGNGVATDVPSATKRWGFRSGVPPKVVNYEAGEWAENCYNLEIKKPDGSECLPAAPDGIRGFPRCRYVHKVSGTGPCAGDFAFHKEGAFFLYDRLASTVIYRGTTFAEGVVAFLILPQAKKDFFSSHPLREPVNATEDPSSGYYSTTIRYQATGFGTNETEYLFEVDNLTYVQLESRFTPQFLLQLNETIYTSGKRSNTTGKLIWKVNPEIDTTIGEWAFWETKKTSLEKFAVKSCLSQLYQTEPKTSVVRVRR

Numbering of substitutions follows the chain as printed. Some results are limits rather than exact numbers.

B1: FVM02P (antibody, V domains shown)
VH: EVQLVESGGGLVQPGGSLRLSCAASGFTGFTFSDYAFYWVRQAPGKGLEWVGFIRGKAYGGTADYAASVKGRFTISRDNSKNTAYLQMSSLKTEDSAVYYCTSQGVTVATPYHWGQGVLVTVSS
VL: DIVLTQSPLSLPVTPGEPASISCRSSQSLLHSGGKTYLYWYLQKPGQSPQLLIHEVSNRASGVPDRFSGSGSGTDFTLKISRVEAEDVGVYYCMQGIQLPLTFGGGTKVEIKR
With B1, the results for the EC50 with EBOV GP[change] and with EBOV GPcl were 10 ng/mL and 5 ng/mL, respectively.

B2: FVM01P (antibody, V domains shown)
VH: QVQLQESGPGLVKPSETLSLTCTVSGASISNYRWNWIRQPPGKGLEWIGEINGYSGSTNYNPSLKSRVTISKDASKNQFSLKLTSVTAADTAVYYCPIIGGFTLEWFDVWGPGVLVTVSS
VL: DVVLTQSPSSLSASVGDRVTITCRASQGIRNYLNWYQQKPRKAPKLLIYAASSLQSGVPSRFSGSGSGTEFTLTISSLQAEDFATYYCLQGYRTPFTFGPGTKLDIKR
With B2, the EC50 – broadly, the concentration needed to bring the measured effect to its halfway point – with EBOV GP[change] stood at 9 ng/mL; with EBOV GPcl it was 5 ng/mL; with EBOV soluble GP (sGP) it was 5 ng/mL.

B3: FVM13 (antibody, V domains shown)
VH: EVQLVQSGAEVKRPGESLKISCKTSGYTFTSSWISWVRQMPGKGLEWLGSIYPGDSDTRYNPSFQGHVTISADTSIITTHLQWSSLKASDTATYYCVKGSETWGQGVLVTVSS
VL: KPMLTQPTSLSASPGASASLTCTFSGGINVAGYNILWYQQKAGSPPRYLLRYKSDSTKDQGSGVPSRFSGSKDASANTGILRISGLQSEDEADYYCAIGHSSGWIFGGGTRLTVL
Take B3: the EC50 with EBOV GP[change] was 3 ng/mL; with EBOV GPcl, over 10000 ng/mL; with EBOV soluble GP (sGP), 5 ng/mL.

B4: FVM20 (antibody, V domains shown)
VH: EVQLVESGAEVKRPGESLTISCKTSGYSFTGSWISWVRQMPGKGLEWLGSIYPGDSETKYNPSFQGHVTISADKSVTTTYLKWSSLKASDTATYYCVKGSETWGQGVLVTVSS
VL: B3 VL with K1N, P2F, P7S, T8A, N34H, L36F, K41N, A42P, T57E
As to B4, the EC50 with EBOV GP[change] was 7 ng/mL; with EBOV GPcl it was over 10000 ng/mL; with EBOV soluble GP (sGP), 23 ng/mL.

B5: FVM09 (antibody, V domains shown)
VH: B4 VH with E6Q, G31D, I34V, S35A
VL: B3 VL with K1Q, P2L, M3V, T8A
On to B5, for which the EC50 with EBOV GP[change] amounted to 5 ng/mL; in the experiment with EBOV soluble GP (sGP), 17 ng/mL.

B6: FVM04 (antibody, V domains shown)
VH: EVQLVQSGGGLVQPGGSMRLSCEASGLSLSDYFMHWVRQAQGKGLEWIGLIQTKAFTYKTEYPAAVKGRFTISRDDSKNTLYLQMSSLKPEDTALYYCIAVTPDFYYWGQGVLVTVSS
VL: DVVMTQSPSFLSASVGDRVTITCRASQDITINLNWFQHKPGKAPKRLIYVASRLERGVPSRFSGSGSGTEFTLTISSLQPEDFATYYCQQYNNYPLTFGPGTKLDIKR
Turning to B6, the EC50 was found to be 12 ng/mL with EBOV GP[change], 8 ng/mL with EBOV GPcl and 7 ng/mL with EBOV soluble GP (sGP).

The values are drawn from US20170334973A1 (published 2017).
